In patent US8273705B2, “Conversion of apoptotic proteins” (The Burnham Institute, priority 2002, dated 2012):

B1: TR3/ΔDBD: TR3 mutant with the DNA binding domain removed; used as GFP fusion (protein)
chain: MPCIQAQYGTPAPSPGPRDHLASDPLTPEFIKPTMDLASPEAAPAAPTALPSFSTFMDGYTGEFDTFLYQLPGTVQPCSSASSSASSTSSSSATSPASASFKFEDFQVYGCYPGPLSGPVDEALSSSGSDYYGSPCSAPSPSTPSFQPPQLSPWDGSFGHFSPSQTYLVLHRLQCARGFGDWIDSILAFSRSLHSLLVDVPAFACLSALVLITDRHGLQEPRRVEELQNRIASCLKEHVAAVAGEPQPASCLSRLLGKLPELRTLCTQGLQRIFYLKLEDLVPPPPIIDKIFMDTLPF
modifications: left off: large carriers; small tags and cut ends
notes: used as GFP fusion
B2: TR3/ΔDBD/Δ471-488: TR3/ΔDBD with eighteen amino acids from 471 to 488 in the DC1 region deleted (protein)
chain: MPCIQAQYGTPAPSPGPRDHLASDPLTPEFIKPTMDLASPEAAPAAPTALPSFSTFMDGYTGEFDTFLYQLPGTVQPCSSASSSASSTSSSSATSPASASFKFEDFQVYGCYPGPLSGPVDEALSSSGSDYYGSPCSAPSPSTPSFQPPQLSPWDGSFGHFSPSQTYLVLFSRSLHSLLVDVPAFACLSALVLITDRHGLQEPRRVEELQNRIASCLKEHVAAVAGEPQPASCLSRLLGKLPELRTLCTQGLQRIFYLKLEDLVPPPPIIDKIFMDTLPF
modifications: left off: large carriers; small tags and cut ends
notes: TR3/ΔDBD with eighteen amino acids from 471 to 488 in the DC1 region deleted

Key:
Type in all cases: cell-based, human
HEK293T cells = assay: Subcellular fractionation, heavy membrane (HM) fractions of HEK293T cells
Experimental: Subcellular localization assays—Cells were seeded onto cover-slips in 6-well plates overnight, then transiently transfected with GFP-fusion expression plasmids. After 16 hours, cells were washed with PBS and fixed in 4% paraformaldehyde. For mitochondrial staining, cells were then incubated with anti-Hsp60 goat IgG (Santa Cruz, USA), followed by anti-goat IgG conjugated with Cy3 (Sigma). For cyt c staining, cells were incubated with monoclonal anti-cyt c IgG (PharMingen), followed by anti-mouse IgG conjugated with Cy5 (Amersham). Fluorescent images were collected and analyzed using a MRC-1024 MP laser-scanning confocal microscope (Bio-Rad). Subcellular fractionation assays were performed as described (Li, et al. 2000 Science 289:1159-1164). Briefly, cells (1×10^7 cells) suspended in 0.5 ml hypotonic buffer (5 mM Tris-HCl, pH 7.4, 5 mM KCl, 1.5 mM MgCl2, 0.1 mM EGTA, pH 8.0, and 1 mM DTT) were homogenized and cell extracts were centrifuged at 500×g for 5 min. The resulting supernatant was centrifuged at 10,000×g for 30 min at 4° C. to obtain the HM fraction. HM fraction was resuspended in 100 μl lysis buffer (10 mM Tris, pH 7.4, 150 mM NaCl, 1% Triton X-100, 5 mM EDTA, pH 8.0) for immunoblotting analysis. […]

293T cells [1] = assay: Confocal microscopy of mitochondrial targeting in 293T cells
Experimental: Subcellular localization assays—Cells were seeded onto cover-slips in 6-well plates overnight, then transiently transfected with GFP-fusion expression plasmids. After 16 hours, cells were washed with PBS and fixed in 4% paraformaldehyde. For mitochondrial staining, cells were then incubated with anti-Hsp60 goat IgG (Santa Cruz, USA), followed by anti-goat IgG conjugated with Cy3 (Sigma). For cyt c staining, cells were incubated with monoclonal anti-cyt c IgG (PharMingen), followed by anti-mouse IgG conjugated with Cy5 (Amersham). Fluorescent images were collected and analyzed using a MRC-1024 MP laser-scanning confocal microscope (Bio-Rad). Subcellular fractionation assays were performed as described (Li, et al. 2000 Science 289:1159-1164). Briefly, cells (1×10^7 cells) suspended in 0.5 ml hypotonic buffer (5 mM Tris-HCl, pH 7.4, 5 mM KCl, 1.5 mM MgCl2, 0.1 mM EGTA, pH 8.0, and 1 mM DTT) were homogenized and cell extracts were centrifuged at 500×g for 5 min. The resulting supernatant was centrifuged at 10,000×g for 30 min at 4° C. to obtain the HM fraction. HM fraction was resuspended in 100 μl lysis buffer (10 mM Tris, pH 7.4, 150 mM NaCl, 1% Triton X-100, 5 mM EDTA, pH 8.0) for immunoblotting analysis.
A. confocal microscopy—First an experiment was performed to determine whether the deletion mutant TR3/ΔDBD targets mitochondria via its interaction with Bcl-2. In confocal microscopy analysis, GFP-TR3/ΔDBD and Bcl-2 were transfected into 293T cells alone or together. […] Bcl-2, TR3/ΔDBD and mitochondria (Hsp60) were visualized using confocal microscopy and the three images were overlaid.

293T cells [2] = assay: DAPI apoptosis assay in 293T cells
Experimental: Apoptosis assays—For nuclear morphological change analysis, cells were trypsinized, washed with PBS, fixed with 3.7% paraformaldehyde, and stained with DAPI (4,6-diamidino-2-phenylindole) (50 μg/ml) to visualize the nuclei by UV-microscopy. The percentages of apoptotic cells were determined by counting 300 GFP-positive cells, scoring cells having nuclear fragmentation and/or chromatin condensation.
DAPI staining was used to study the apoptotic effect of TR3/Bcl-2 interaction. 293T cells were transfected with GFP-TR3/ΔDBD alone or together with Bcl-2. After 36 h, nuclei were stained by DAPI and nuclear fragmentation and chromatin condensation were identified. Cells were also stained with anti-Bcl-2 antibody, followed by TRITC-conjugated secondary antibody (Sigma). Bcl-2 and GFP-ΔDBD expression and nuclear morphology were visualized by fluorescence microscopy, and the two images were overlaid. […] But, when Bcl-2 was cotransfected, a significant amount of transfected cells underwent apoptosis. For example, approximately 4% of cells transfected with either TR3/ΔDBD or Bcl-2 were apoptotic, compared to 35% of cell transfected with both. […] Cotransfection of Bcl-2, however, prevented BAX-induced apoptosis in these cells (see FIG. 4). The effect of Bcl-2 on apoptotic potential of TR3/ΔDBD in lung cancer and breast cancer cells was also investigated.
To characterize the pro-apoptotic mechanism of Bcl-2 in the setting of TR3-induced apoptosis, various TR3 mutants and Bcl-2 mutants were co-expressed in HEK293T cells. TR3 mutants were transfected into 293T cells together with or without Bcl-2 expression vector or with Bcl-2 mutants. After 36 h, nuclei were stained by DAPI. Cells displaying nuclear condensation or fragmentation were scored.
The role of various Bcl-2 mutants in mediating apoptosis induction by TR3 was next studied. […] The hydrophobic cleft of Bcl-2 is involved in its anti-apoptotic effect through its interaction with BH3 domain of pro-apoptotic molecules (Reed 1997 Semin Hematol 34:9-19; Reed 1997 Nature 387:773-776). To investigate whether the BH3 domain-binding motif of Bcl-2 is also involved in its apoptotic effect, various Bcl-2 mutants including Y108K Bcl-2, with a mutation in the BH3 domain-binding cleft, L137A, and G145A (all with impaired interaction with bax), were cotransfected together with TR3/ΔDBD. […] Bcl-2 mutations (Y108K, L137A, G145A) that impaired its interaction with Bax, abolished the Bcl-2 inhibitory effect on Bax-induced apoptosis, consistent with previous observations that the hydrophobic cleft of Bcl-2 is essential for its anti-apoptotic effect. […] Thus, an intact BH3 domain-binding motif in Bcl-2 is involved in its pro-apoptotic effect. In contrast to the inhibitory effect of Bcl-2 on Bax-induced apoptosis TR3/ΔDBD-induced apoptosis was augmented by co-expression of Bcl-2 in HEK293T cells.
Mitochondrial targeting of TR3 has been previously identified as being involved in its apoptotic effect. To study whether mitochondrial localization of the TR3/ΔDBD/Bcl-2 complex was involved in their apoptotic effect, TR3/ΔDBD was cotransfected with Bcl-2/ATM, a Bcl-2 lacking its transmembrane domain. […] Thus, mitochondrial localization of TR3/ΔDBD/Bcl-2 complex is involved in this apoptotic effect.

[3] = 293T, co-expressed with Bcl-2, 36 h, DAPI

Molecule | accumulation in HM fraction (HEK293T cells; presence of Bcl-2) | subcellular distribution (293T cells [1]; coexpressed with Bcl-2) | subcellular distribution (293T cells [1]; expressed alone) | apoptosis (293T cells [2]; [3]) | apoptosis (293T cells [2]; 293T, coexpression with Bcl-2/ΔTM) | apoptosis (293T cells [2]; 293T, cotransfected with Bcl-2 Y108K) | apoptotic cells (293T cells [2]; 293T, transfected alone, 36 h, DAPI) | apoptotic cells (293T cells [2]; 293T, transfected with both TR3/ΔDBD and Bcl-2, 36 h, DAPI) [%] | apoptosis (293T cells [2]; HEK293T, co-expression with Bcl-2/ΔLoop) | apoptosis (293T cells [2]; co-expressed with Bcl-2 L137A and G145A) | apoptosis (293T cells [2]; co-expressed with Bcl-2 mutants lacking TM, BH1, BH2 or BH3 domain) | accumulation in HM fraction (HEK293T cells; either in the absence or presence of Bcl-2) | colocalization with mitochondria (293T cells [1])
B1 | accumulated in the HM fraction | distribution pattern overlaid extensively with that of Hsp60 | diffuse distribution pattern | augmented | did not result in apoptosis | unable to induce apoptosis | approximately 4% | 35 | did not induce cell death | retained the ability to promote apoptosis | incapable of inducing apoptosis | – | –
B2 | – | – | – | failed to confer the apoptotic potential of Bcl-2 | – | – | – | – | – | – | – | not found in the HM fraction | failed to colocalize with mitochondria
